Assay results taken from paper PMC3492551 (Nature structural & molecular biology, 2012).

Legend:
MPP8 50-118 = MPP8 50-118 (UniProt Q99549); test: fluorescence polarization titration; settings: reference: H3K9me3 peptide; sites S10
UHRF1 126-280 [1] = molecular target: UHRF1 126-280 (UniProt Q96T88); test: biotin-peptide streptavidin pulldown, western blot; settings: sites S10
UHRF1 126-280 [2] = molecular target: UHRF1 126-280 (UniProt Q96T88); test: histone peptide microarray; settings: sites S10
[3] = molecular target: T1, UHRF1 tandem Tudor domain (TTD), residues 126-280 (human, UniProt Q96T88 126-280); test: NMR titration
T1 sequence (looked up): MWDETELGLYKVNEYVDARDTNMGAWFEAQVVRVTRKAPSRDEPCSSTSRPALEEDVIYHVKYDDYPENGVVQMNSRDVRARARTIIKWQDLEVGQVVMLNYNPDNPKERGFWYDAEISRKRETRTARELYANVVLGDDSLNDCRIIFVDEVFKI

For “histone H3 1-20 (from UniProt P68431) H3K9me3S10p peptide”, the KD (MPP8 50-118) was “lost; reference 0.23”.

For “histone H3 (from UniProt P68431) H3K9me2S10p peptide”, the “binding against the reference” value (UHRF1 126-280 [1]; reference: H3K9me2 peptide) was “same” and the “binding against the reference” value (UHRF1 126-280 [2]; reference: H3K9me2 peptide) was “same”.

In the case of “histone H3 (from UniProt P68431) H3K9me3S10p peptide”, the “binding against the reference” value (UHRF1 126-280 [1]; reference: H3K9me3 peptide) is reported as “same” and the “binding against the reference” value (UHRF1 126-280 [2]; reference: H3K9me3 peptide) is reported as “same”.

ARTKQTARKST (not fully specified; trimethyl-lysine at 9; phosphoserine at 10) [doubly modified H3 peptide (residues 1-11, ARTKQTARKme3SpT)]: binds [3].
